Measurements from article PMC4066782, “The telomerase inhibitor Gno1p/PINX1 activates the helicase Prp43p during ribosome biogenesis” (Nucleic Acids Research, 2014).

Target: Prp43p-HIS (S. cerevisiae, UniProt P53131 1-767)
Assay: cell-based or functional assay

Chain of Prp43p-HIS (P53131 whole entry): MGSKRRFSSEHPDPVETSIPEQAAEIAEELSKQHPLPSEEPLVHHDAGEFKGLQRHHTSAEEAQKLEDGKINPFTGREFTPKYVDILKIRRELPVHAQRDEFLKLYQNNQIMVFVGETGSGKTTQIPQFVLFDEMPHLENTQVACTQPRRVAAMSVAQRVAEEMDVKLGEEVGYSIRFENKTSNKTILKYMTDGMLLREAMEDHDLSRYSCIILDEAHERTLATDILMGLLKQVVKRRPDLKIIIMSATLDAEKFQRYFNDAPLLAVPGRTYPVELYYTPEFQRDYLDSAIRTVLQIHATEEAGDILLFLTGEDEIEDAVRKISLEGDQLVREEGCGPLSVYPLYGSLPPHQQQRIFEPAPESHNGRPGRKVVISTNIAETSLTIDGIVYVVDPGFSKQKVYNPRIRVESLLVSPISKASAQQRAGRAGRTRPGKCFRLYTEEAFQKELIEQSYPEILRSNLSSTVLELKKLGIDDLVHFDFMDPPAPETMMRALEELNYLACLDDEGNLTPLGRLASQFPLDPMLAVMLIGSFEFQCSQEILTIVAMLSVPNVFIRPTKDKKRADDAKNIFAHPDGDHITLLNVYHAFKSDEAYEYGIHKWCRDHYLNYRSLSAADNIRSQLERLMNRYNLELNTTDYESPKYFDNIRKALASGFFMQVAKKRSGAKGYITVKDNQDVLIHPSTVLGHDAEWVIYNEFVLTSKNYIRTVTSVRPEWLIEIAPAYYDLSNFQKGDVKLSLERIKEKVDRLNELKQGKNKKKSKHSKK

ATP hydrolysed by Prp43p-HIS after 60 min of incubation, with GST-PINX1-HIS against without (0.1 μM proteins, 100 μM ATP, 30°C): 9 fold
B1: GST-PINX1-HIS (natural protein, human, UniProt Q96BK5 1-328, looked up)
chain: MSMLAERRRKQKWAVDPQNTAWSNDDSKFGQRMLEKMGWSKGKGLGAQEQGATDHIKVQVKNNHLGLGATINNEDNWIAHQDDFNQLLAELNTCHGQETTDSSDKKEKKSFSLEEKSKISKNRVHYMKFTKGKDLSSRSKTDLDCIFGKRQSKKTPEGDASPSTPEENETTTTSAFTIQEYFAKRMAALKNKPQVPVPGSDISETQVERKRGKKRNKEATGKDVESYLQPKAKRHTEGKPERAEAQERVAKKKSAPAEEQLRGPCWDQSSKASAQDAGDHVQPPEGRDFTLKPKKRRGKKKLQKPVEIAEDATLEETLVKKKKKKDSK
